Data from US5840673, “Insulin-like growth factor binding protein 3 (IGF-BP3) in treatment of p53-related tumors” (Bristol-Myers Squibb Company).

B1: IGF-BP3 Box B (dsDNA)
DNA 1: TCGAGAGGAGGGCAAGACCTGCCAAGCCTGGGTA
DNA 2: TACCCAGGCTTGGCAGGTCTTGCCCTCCTCTCGA
B2: IGF-BP3 Box A (dsDNA)
DNA 1: TCGAGAAAACAAGCCACCAACATGCTTGC
DNA 2: GCAAGCATGTTGGTGGCTTGTTTTCTCGA

Target: p53 (His-tagged, wild type) (Homo sapiens, UniProt P04637 P04637:1-393)
Experiment: EMSA; binding potentiated and supershifted by PAb421
Conditions: tags: His fusion, baculovirus-produced; chain copies: 4

Sequence of p53 (His-tagged, wild type) (P04637 whole entry, one chain of several): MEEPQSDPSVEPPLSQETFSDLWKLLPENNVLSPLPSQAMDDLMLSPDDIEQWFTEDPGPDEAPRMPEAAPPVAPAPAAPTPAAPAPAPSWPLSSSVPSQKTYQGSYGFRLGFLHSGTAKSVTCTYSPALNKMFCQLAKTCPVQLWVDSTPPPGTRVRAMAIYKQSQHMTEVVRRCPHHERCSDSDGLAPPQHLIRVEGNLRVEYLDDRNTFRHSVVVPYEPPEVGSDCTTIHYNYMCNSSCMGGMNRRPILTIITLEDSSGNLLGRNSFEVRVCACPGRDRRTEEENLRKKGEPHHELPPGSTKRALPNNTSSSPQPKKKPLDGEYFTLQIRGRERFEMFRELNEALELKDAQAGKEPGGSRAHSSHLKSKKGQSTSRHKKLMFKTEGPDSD

| Binder | binding result |
| --- | --- |
| B1 | binds |
| B2 | binds |
